Test results published in EP4806922A2 (Lyvgen Biopharma Holdings Limited, dated 2026).
Like-named read-outs stand apart in the source and are kept apart here.

T1: human BCMA protein (human, UniProt Q02223 1-54)
T1 construct: also called human BCMA expressing NCI-H929 cells; human BCMA overexpressing HEK293 cells
T1 sequence (looked up): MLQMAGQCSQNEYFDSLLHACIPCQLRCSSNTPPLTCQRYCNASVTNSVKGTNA


What was measured:
human PD-L1 protein [1] = target: T2, human PD-L1 protein (human, UniProt Q9NZQ7 19-238); test: FCM or ELISA, graded summary
T2 sequence (Q9NZQ7 19-238 limits assumed): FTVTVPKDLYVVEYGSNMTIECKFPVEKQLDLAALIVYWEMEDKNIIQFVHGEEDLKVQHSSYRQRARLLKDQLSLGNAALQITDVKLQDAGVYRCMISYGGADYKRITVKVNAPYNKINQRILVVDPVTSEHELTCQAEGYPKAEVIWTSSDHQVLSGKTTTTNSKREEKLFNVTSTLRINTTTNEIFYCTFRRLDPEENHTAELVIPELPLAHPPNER

human CD3D/E protein [2] = target: T3, human CD3D/E protein (human, UniProt P04234 22-105; P07766 23-126); test: ELISA or FCM, graded summary
T3 construct: also called human CD3 expressing Jurkat cells
T3 sequence (P04234 22-105, chain 1 of 2): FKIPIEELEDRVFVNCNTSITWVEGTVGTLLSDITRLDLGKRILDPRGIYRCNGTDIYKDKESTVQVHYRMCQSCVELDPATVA
T3 sequence (P07766 23-126, chain 2 of 2): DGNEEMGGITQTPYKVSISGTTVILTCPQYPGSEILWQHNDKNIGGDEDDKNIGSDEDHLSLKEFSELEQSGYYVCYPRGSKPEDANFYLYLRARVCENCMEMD

human BCMA protein = target: T1, human BCMA protein; test: FCM or ELISA, graded summary
human PD-L1 protein [3] = target: T2, human PD-L1 protein; test: FCM or ELISA, graded summary; remark: listed apart in the source
human CD3D/E protein [4] = target: T3, human CD3D/E protein; test: FCM or ELISA, graded summary
human CD137 protein = target: T4, human CD137 protein (human, UniProt Q07011 24-186); test: ELISA or FCM, graded summary
T4 construct: also called human CD137 expressing CHO cells
T4 sequence (Q07011 24-186 limits assumed): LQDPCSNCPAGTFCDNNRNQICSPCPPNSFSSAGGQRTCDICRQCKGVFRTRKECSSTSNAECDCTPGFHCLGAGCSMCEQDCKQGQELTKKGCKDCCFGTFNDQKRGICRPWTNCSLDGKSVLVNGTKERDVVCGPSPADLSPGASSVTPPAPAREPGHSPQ

Binder	binding result (human PD-L1 protein [3])	binding result (human CD3D/E protein [4])	other results
Ly076 (anti-PD-L1 parent) (antibody, V domains shown, Parent monoclonal antibody used as control; also called anti-PD-L1 mAb Ly076) VH: QVQLVQSGAEVKKPGASVKVSCKASGYTFTDFWMSWVRQAPGQGLEWMGQIYPNTGTTHSNEKFKGRVTMTRDTSTSTVYMELSSLRSEDTAVYYCARSYHISTTPNWFAYWGQGTLVTVSS VL: DIQMTQSPSSLSASVGDRVTITCKASQNVYKKLEWYQQKPGKVPKVLIYHTNILQTGVPSRFSGSGSGTDYTLTISSLQPEDVATYYCYQWNSGPTFGGGTKVEIK			binding result (human PD-L1 protein [1]): binds
Ly305 (anti-CD3 parent) (antibody, V domains shown, Parent monoclonal antibody used as control; also called anti-CD3 mAb Ly305; parental anti-CD3 mAb) VH: EVQLVESGGGLVQPGGSLRLSCAASGFTFSTYAMNWVRQAPGKGLEWVGRIRSKYNNYATYYADSVKGRFTISRDDSKNSLYLQMNSLKTEDTAVYYCVRHGNFGNSYVSWFAYWGQGTLVTVSS VL: QAVVTQEPSLTVSPGGTVTLTCRSSTGAVTTSNYANWVQQKPGQAPRGLIGGTNKRAPWTPARFSGSLLGGKAALTITGAQAEDEADYYCALWYSNLWVFGGGTKLTVL			binding result (human CD3D/E protein [2]): binds
Ly2959 (BCMA/CD3/PD-L1) (other, Multi-specific (tri-specific) antibody with three different chains HC1, HC2, LC1; also called BCMA(a) /CD3 /PD-L1) heavy 1: QVQLVQSGAEVKKPGASVKVSCKASGYTFTNHIIHWVRQAPGQGLEWMGYINPYPGYHAYNEKFQGRATMTSDTSTSTVYMELSSLRSEDTAVYYCARDGYYRDTDVLDYWGQGTLVTVSSASTKGPSVFPLAPSSKSTSGGTAALGCLVKDYFPEPVTVSWNSGALTSGVHTFPAVLQSSGLYSLSSVVTVPSSSLGTQTYICNVNHKPSNTKVDKKVEPKSCGGGGSGGGGSGGGGSGGGGSEVQLVESGGGLVQPGGSLRLSCAASGFTFSTYAMNWVRQAPGKGLEWVGRIRSKYNNYATYYADSVKGRFTISRDDSKNSLYLQMNSLKTEDTAVYYCVRHGNFGNSYVSWFAYWGQGTLVTVSSGGGGSDKTHTCPPCPAPELLGPSVFLFPPKPKDTLMISRTPEVTCVVVDVSHEDPEVKFNWYVDGVEVHNAKTKPREEQYNSTYRVVSVLTVLHQDWLNGKEYKCKVSNKALGAPIEKTISKAKGQPREPQVYTLPPSREEMTKNQVSLWCLVKGFYPSDIAVEWESNGQPENNYKTTPPVLDSDGSFFLYSKLTVDKSRWQQGNVFSCSVMHEALHNHYTQKSLSLSPGKGGGGSGGGGSGGGGSGGGGSQVQLVQSGAEVKKPGASVKVSCKASGYTFTDFWMSWVRQAPGQGLEWMGQIYPNTGTTHSNEKFKGRVTMTRDTSTSTVYMELSSLRSEDTAVYYCARSYHISTTPNWFAYWGQGTLVTVSS heavy 2: QVQLVQSGAEVKKPGASVKVSCKASGYTFTNHIIHWVRQAPGQGLEWMGYINPYPGYHAYNEKFQGRATMTSDTSTSTVYMELSSLRSEDTAVYYCARDGYYRDTDVLDYWGQGTLVTVSSASTKGPSVFPLAPSSKSTSGGTAALGCLVKDYFPEPVTVSWNSGALTSGVHTFPAVLQSSGLYSLSSVVTVPSSSLGTQTYICNVNHKPSNTKVDKKVEPKSCGGGGSGGGGSGGGGSGGGGSQAVVTQEPSLTVSPGGTVTLTCRSSTGAVTTSNYANWVQQKPGQAPRGLIGGTNKRAPWTPARFSGSLLGGKAALTITGAQAEDEADYYCALWYSNLWVFGGGTKLTVLGGGGSDKTHTCPPCPAPELLGPSVFLFPPKPKDTLMISRTPEVTCVVVDVSHEDPEVKFNWYVDGVEVHNAKTKPREEQYNSTYRVVSVLTVLHQDWLNGKEYKCKVSNKALGAPIEKTISKAKGQPREPQVYTLPPSREEMTKNQVSLSCAVKGFYPSDIAVEWESNGQPENNYKTTPPVLDSDGSFFLVSKLTVDKSRWQQGNVFSCSVMHEALHNRFTQKSLSLSPGKGGGGSGGGGSGGGGSGGGGSDIQMTQSPSSLSASVGDRVTITCKASQNVYKKLEWYQQKPGKVPKVLIYHTNILQTGVPSRFSGSGSGTDYTLTISSLQPEDVATYYCYQWNSGPTFGGGTKVEIK light: not shown	binds	binds	binding result (human BCMA protein): binds
Ly1630 (anti-CD137 parent) (antibody, V domains shown, Parent monoclonal antibody used as control; also called anti-CD137 mAb Ly1630) VH: QVQLVQSGAEVKKPGASVKVSCKASGYTFAGFEMHWVRQAPGQGLEWMGAIDPKTGGTDYNQKFKDRVTMTRDTSISTAYMELSRLRSDDTAVYYCARDLGYFDVWGQGTLVTVSS VL: DIQMTQSPSSLSASVGDRVTITCRASQDIRSNLNWYQQKPGGAVKLLIYYTSRLHSGVPSRFSGSGSGTDYTLTISSLQPEDFATYFCQQSEKLPRTFGGGTKVEIR			binding result (human CD137 protein): binds
Ly3106 (BCMA/CD3/PD-L1) (other, Multi-specific (tri-specific) antibody with three different chains HC1, HC2, LC1; also called BCMA(b) /CD3 /PD-L1) heavy 1: QLQLQESGPGLVKPSETLSLTCTVSGGSISSGSYFWGWIRQPPGKGLEWIGSIYYSGITYYNPSLKSRVTISVDTSKNQFSLKLSSVTAADTAVYYCARHDGAVAGLFDYWGQGTLVTVSSASTKGPSVFPLAPSSKSTSGGTAALGCLVKDYFPEPVTVSWNSGALTSGVHTFPAVLQSSGLYSLSSVVTVPSSSLGTQTYICNVNHKPSNTKVDKKVEPKSCGGGGSGGGGSGGGGSGGGGSEVQLVESGGGLVQPGGSLRLSCAASGFTFSTYAMNWVRQAPGKGLEWVGRIRSKYNNYATYYADSVKGRFTISRDDSKNSLYLQMNSLKTEDTAVYYCVRHGNFGNSYVSWFAYWGQGTLVTVSSGGGGSDKTHTCPPCPAPELLGPSVFLFPPKPKDTLMISRTPEVTCVVVDVSHEDPEVKFNWYVDGVEVHNAKTKPREEQYNSTYRVVSVLTVLHQDWLNGKEYKCKVSNKALGAPIEKTISKAKGQPREPQVYTLPPSREEMTKNQVSLWCLVKGFYPSDIAVEWESNGQPENNYKTTPPVLDSDGSFFLYSKLTVDKSRWQQGNVFSCSVMHEALHNHYTQKSLSLSPGKGGGGSGGGGSGGGGSGGGGSQVQLVQSGAEVKKPGASVKVSCKASGYTFTDFWMSWVRQAPGQGLEWMGQIYPNTGTTHSNEKFKGRVTMTRDTSTSTVYMELSSLRSEDTAVYYCARSYHISTTPNWFAYWGQGTLVTVSS heavy 2: QLQLQESGPGLVKPSETLSLTCTVSGGSISSGSYFWGWIRQPPGKGLEWIGSIYYSGITYYNPSLKSRVTISVDTSKNQFSLKLSSVTAADTAVYYCARHDGAVAGLFDYWGQGTLVTVSSASTKGPSVFPLAPSSKSTSGGTAALGCLVKDYFPEPVTVSWNSGALTSGVHTFPAVLQSSGLYSLSSVVTVPSSSLGTQTYICNVNHKPSNTKVDKKVEPKSCGGGGSGGGGSGGGGSGGGGSQAVVTQEPSLTVSPGGTVTLTCRSSTGAVTTSNYANWVQQKPGQAPRGLIGGTNKRAPWTPARFSGSLLGGKAALTITGAQAEDEADYYCALWYSNLWVFGGGTKLTVLGGGGSDKTHTCPPCPAPELLGPSVFLFPPKPKDTLMISRTPEVTCVVVDVSHEDPEVKFNWYVDGVEVHNAKTKPREEQYNSTYRVVSVLTVLHQDWLNGKEYKCKVSNKALGAPIEKTISKAKGQPREPQVYTLPPSREEMTKNQVSLSCAVKGFYPSDIAVEWESNGQPENNYKTTPPVLDSDGSFFLVSKLTVDKSRWQQGNVFSCSVMHEALHNRFTQKSLSLSPGKGGGGSGGGGSGGGGSGGGGSDIQMTQSPSSLSASVGDRVTITCKASQNVYKKLEWYQQKPGKVPKVLIYHTNILQTGVPSRFSGSGSGTDYTLTISSLQPEDVATYYCYQWNSGPTFGGGTKVEIK light: SYVLTQPPSVSVAPGQTARITCGGNNIGSKSVHWYQQPPGQAPVVVVYDDSDRPSGIPERFSGSNSGNTATLTISRVEAGDEAVYYCQVWDSSSDHVVFGGGTKLTVLGQPKAAPSVTLFPPSSEELQANKATLVCLISDFYPGAVTVAWKGDSSPVKAGVETTTPSKQSNNKYAASSYLSLTPEQWKSHRSYSCQVTHEGSTVEKTVAPTECS	binds	binds	
